Common to all, as to test: EMSA; no ATP, 5 mM Mg2+; 35 mM Tris-HCl pH 7.5, 1 mM DTT, 5 mM MgCl2, 60 mM KCl, 0.1 mg/ml BSA, no ATP, 30 min at 30 C; 5 nM ssDNA
What all share (conditions): protein: recombinant; tags: N-terminal superfolder GFP; Ni-NTA purified; label: 5' Alexa647
In general terms: In EMSA bound probe runs differently from free probe, usually more slowly.

For data set [1], the target named is T1, GFP-Pif1 F723A (Saccharomyces cerevisiae, UniProt P07271 40-859, F723A).
T1 sequence: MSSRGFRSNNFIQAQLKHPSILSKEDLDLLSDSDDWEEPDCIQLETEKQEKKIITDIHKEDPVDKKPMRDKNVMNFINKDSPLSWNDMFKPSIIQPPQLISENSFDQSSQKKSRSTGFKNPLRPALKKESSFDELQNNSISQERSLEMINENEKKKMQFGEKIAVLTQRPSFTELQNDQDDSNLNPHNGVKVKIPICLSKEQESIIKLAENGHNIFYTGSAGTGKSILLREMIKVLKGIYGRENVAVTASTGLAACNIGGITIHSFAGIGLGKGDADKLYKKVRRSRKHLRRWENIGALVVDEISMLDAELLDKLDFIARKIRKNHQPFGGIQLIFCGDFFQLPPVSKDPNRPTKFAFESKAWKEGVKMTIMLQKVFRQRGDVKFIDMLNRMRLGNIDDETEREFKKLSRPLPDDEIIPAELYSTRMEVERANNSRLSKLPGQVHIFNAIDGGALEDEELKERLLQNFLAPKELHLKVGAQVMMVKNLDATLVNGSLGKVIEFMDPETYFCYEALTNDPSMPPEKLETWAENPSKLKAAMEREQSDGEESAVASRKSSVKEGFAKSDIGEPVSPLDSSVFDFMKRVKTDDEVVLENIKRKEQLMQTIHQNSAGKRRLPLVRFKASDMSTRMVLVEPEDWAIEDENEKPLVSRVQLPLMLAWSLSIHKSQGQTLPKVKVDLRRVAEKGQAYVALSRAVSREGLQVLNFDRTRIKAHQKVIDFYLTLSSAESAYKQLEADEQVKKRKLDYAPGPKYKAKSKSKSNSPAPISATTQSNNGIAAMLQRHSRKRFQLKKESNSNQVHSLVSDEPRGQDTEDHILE

For data set [2], the target named is T2, GFP-Pif1 G291P (Saccharomyces cerevisiae, UniProt P07271 40-859, G291P).
T2 sequence: T1 sequence with G252P, A684F

Data set [3] has as its target T3, Pif1 WT (GFP-Pif1) (Saccharomyces cerevisiae, UniProt P07271 40-859).
T3 sequence: T1 sequence with A684F

Residue numbers refer to the chain shown, from its start.

One may read the Kd as the concentration at which binding is half-saturated. On to GCTAGCAGTAGCCAGCATCGAACGTACGATCGGTAACGTA (ssDNA) [40-nt ssDNA], for which the Kd in data set [1] worked out at 55.6 ± 18.5 nM; in data set [2], 61.4 ± 15.8 nM; in data set [3], 12.6 ± 3.81 nM.

(Values after article PMC10279920, “Single-molecule visualization of Pif1 helicase translocation on single-stranded DNA” (The Journal of Biological Chemistry, 2023).)
